Assay results taken from PMC6503924.

Biological target: Todarodes pacificus hemocyanin (Todarodes pacificus)
Assay: cryo-EM structure; single-particle cryo-EM of purified hemocyanin, 2.9 mg/ml, 100 mM HEPES pH 7.5, 200 mM CaCl2; asymmetric refinement (no symmetry imposed), overall 5.1 Å; model by rigid-body fitting

## Todarodes pacificus hemocyanin (natural protein)
  stoichiometry N: 10
